According to PMC7840993, “Fluorescent thermal shift-based method for detection of NF-κB binding to double-stranded DNA” (Scientific Reports, 2021):

Assays:
[1] = target: p65/RelA 1-306 (complete RHD) (human) (UniProt Q04206); assay: fluorescence thermal shift (SYPRO Orange); settings: apparent KD, two equivalent κB sites considered; 1.5 µM protein; ΔTmax 1.678 °C; Thermal shift: 50 mM Tris-HCl pH 7.5, 225 mM NaCl, 2.25% glycerol, 25 min at 4 °C, then 25-95 °C melt; EMSA: 10 mM Tris-HCl pH 7.5, 0.5 mM EDTA, 65 mM KCl, 5 mM
Chain of p65/RelA 1-306 (complete RHD) (human) (Q04206 1-306): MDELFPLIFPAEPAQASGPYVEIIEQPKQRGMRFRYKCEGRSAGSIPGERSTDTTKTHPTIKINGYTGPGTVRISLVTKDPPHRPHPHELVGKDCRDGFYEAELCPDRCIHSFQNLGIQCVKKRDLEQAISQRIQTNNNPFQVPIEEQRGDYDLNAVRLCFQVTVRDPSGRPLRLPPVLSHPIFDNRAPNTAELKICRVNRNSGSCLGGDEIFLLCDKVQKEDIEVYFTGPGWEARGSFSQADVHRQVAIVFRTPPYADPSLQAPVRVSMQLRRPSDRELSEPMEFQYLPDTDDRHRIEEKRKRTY

[2] = target: T1, p50 1-367 (complete RHD) (human) (UniProt P19838); assay: fluorescence thermal shift (SYPRO Orange); settings: apparent KD, two equivalent κB sites considered; 1.5 µM protein; ΔTmax 2.462 °C; Thermal shift: 50 mM Tris-HCl pH 7.5, 225 mM NaCl, 2.25% glycerol, 25 min at 4 °C, then 25-95 °C melt; EMSA: 10 mM Tris-HCl pH 7.5, 0.5 mM EDTA, 65 mM KCl, 5 mM
T1 sequence: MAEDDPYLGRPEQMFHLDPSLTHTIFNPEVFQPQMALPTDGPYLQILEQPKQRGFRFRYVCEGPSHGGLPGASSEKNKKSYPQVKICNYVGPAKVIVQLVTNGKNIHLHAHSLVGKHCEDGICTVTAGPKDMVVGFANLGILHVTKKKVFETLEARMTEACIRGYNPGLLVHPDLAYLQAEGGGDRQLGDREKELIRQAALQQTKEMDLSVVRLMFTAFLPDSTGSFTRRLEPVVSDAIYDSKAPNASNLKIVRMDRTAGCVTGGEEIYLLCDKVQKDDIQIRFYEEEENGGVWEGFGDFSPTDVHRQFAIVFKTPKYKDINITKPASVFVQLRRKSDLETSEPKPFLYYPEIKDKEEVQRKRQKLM

[3] = target: p65/RelA (Homo sapiens, UniProt Q04206); assay: inhibition of […]κB dsDNA binding by fluorescence thermal shift assay (also lowers Tm of the protein without DNA); EMSA
Chain of p65/RelA (Q04206 1-306): as the sequence (Q04206 1-306) above

[4] = target: T2, p50 (Homo sapiens, UniProt P19838); assay: inhibition of dsDNA binding by fluorescence thermal shift assay
T2 construct: gene NFKB1; p50_1-367 (aa 1–367, complete RHD), HIS-tagged
T2 sequence (P19838 1-367): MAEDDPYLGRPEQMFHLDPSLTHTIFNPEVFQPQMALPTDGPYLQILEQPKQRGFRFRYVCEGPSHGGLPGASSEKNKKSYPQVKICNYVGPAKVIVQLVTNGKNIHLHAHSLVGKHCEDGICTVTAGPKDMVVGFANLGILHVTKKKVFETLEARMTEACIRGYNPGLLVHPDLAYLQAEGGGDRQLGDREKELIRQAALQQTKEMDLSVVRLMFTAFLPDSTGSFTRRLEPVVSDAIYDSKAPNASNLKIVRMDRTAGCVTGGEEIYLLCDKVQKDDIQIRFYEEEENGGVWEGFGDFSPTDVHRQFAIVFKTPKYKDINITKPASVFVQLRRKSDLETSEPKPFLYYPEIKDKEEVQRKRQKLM

[5] = target: p65/RelA 1-306 (complete RHD) (human, UniProt Q04206 1-306); assay: fluorescence thermal shift (SYPRO Orange); 10 µM DNA, 1.5 µM protein; Tm raised about 1-1.5 °C (1κB and 2κB range); Thermal shift: 50 mM Tris-HCl pH 7.5, 225 mM NaCl, 2.25% glycerol, 25 min at 4 °C, then 25-95 °C melt; EMSA: 10 mM Tris-HCl pH 7.5, 0.5 mM EDTA, 65 mM KCl, 5 mM MgCl2, 1 mM DTT, 100 µg/mL BSA, 10% glycerol, 50 ng/µl poly(dI-dC), 45 min at 30 °C; settings: protein: recombinant; chain copies: 2; label: none; only one strand given
Chain of p65/RelA 1-306 (complete RHD) (Q04206 1-306): as the sequence (Q04206 1-306) above

[6] = target: p50 1-367 (complete RHD) (human, UniProt P19838 1-367); assay: fluorescence thermal shift (SYPRO Orange); 10 µM DNA, 1.5 µM protein; Tm raised about 2-3 °C (1κB and 2κB range); Thermal shift: 50 mM Tris-HCl pH 7.5, 225 mM NaCl, 2.25% glycerol, 25 min at 4 °C, then 25-95 °C melt; EMSA: 10 mM Tris-HCl pH 7.5, 0.5 mM EDTA, 65 mM KCl, 5 mM MgCl2, 1 mM DTT, 100 µg/mL BSA, 10% glycerol, 50 ng/µl poly(dI-dC), 45 min at 30 °C; settings: protein: recombinant; tags: His, N-terminal Myc; chain copies: 2; label: none; only one strand given

Work on “AATTCGGGACTTTCCCGTCGGGACTTTCC (double strand) [2κB dsDNA]” yielded a Kd [1] of 2.23 µM and a Kd [2] of 0.794 µM.

`CC1=C(CO)C(=O)O[C@@H]([C@@H](C)[C@H]2CC[C@H]3[C@@H]4C[C@H]5O[C@]56[C@@H](O)C=CC(=O)[C@]6(C)[C@H]4CC[C@]23C)C1` [WFA, withaferin A] gave an IC50 [3] of ~16.4 µM and an IC50 [4] of ~19.1 µM.

B1: 1κB dsDNA (dsDNA)
DNA 1: AGTTGAGGGGACTTTCCCAGGC
DNA 2: GCCTGGGAAAGTCCCCTCAACT
B1: binds [5]; binds [6].
